Experimental data: paper PMC5764413 (PLoS Neglected Tropical Diseases, 2017)

Target: the molecule itself
Experiment: cross-linking

Protein | binding result
RVFV MP12 nucleocapsid protein (N), wild type, N-terminal 6His-tag (p14-N) (natural protein) MDNYQELRVQFAAQAVDRNEIEQWVREFAYQGFDARRVIELLKQYGGADWEKDAKKMIVLALTRGNKPRRMMMKMSKEGKATVEALINKYKLKEGNPSRDELTLSRVAAALAGWTCQALVVLSEWLPVTGTTMDGLSPAYPRHMMHPSFAGMVDPSLPGDYLRAILDAHSLYLLQFSRVINPNLRGRTKEEVAATFTQPMNAAVNSNFISHEKRREFLKAFGLVDSNGKPSAAVMAAAQAYKTAA | binds
RVFV MP12 N protein delN1-14, N-terminal 6His-tag (p14-N) (domain or fragment) AVDRNEIEQWVREFAYQGFDARRVIELLKQYGGADWEKDAKKMIVLALTRGNKPRRMMMKMSKEGKATVEALINKYKLKEGNPSRDELTLSRVAAALAGWTCQALVVLSEWLPVTGTTMDGLSPAYPRHMMHPSFAGMVDPSLPGDYLRAILDAHSLYLLQFSRVINPNLRGRTKEEVAATFTQPMNAAVNSNFISHEKRREFLKAFGLVDSNGKPSAAVMAAAQAYKTAA | binds
